From paper PMC11452484

Key:
[1] = target: short pAgo (SPARSA Ago subunit);Sir2-APAZ N142A (Geobacter sulfurreducens;Geobacter …, UniProt Q74DF5;Q74DF6 1-473;1-587, |N142A); experiment: cryo-EM structure
[2] = target: short pAgo (SPARSA Ago subunit);Sir2-APAZ (Geobacter sulfurreducens;Geobacter …, UniProt Q74DF5;Q74DF6 1-473;1-587, |); experiment: SEC

B1: gRNA-target ssDNA (DNA:RNA)
RNA: AUUCCUGUUAGAGCUGUUAAC
DNA: AAGTTAACAGCTCTAACAGGAATAA
modifications: 5'-phosphate on guide RNA
B1: binds [1]; binds [2].
